According to US20170000849A1, “CD300A RECEPTORS AS VIRUS ENTRY COFACTORS” (INSTITUT NATIONAL DE LA SANTE ET DE LA RECHERCHE MEDICALE …, priority 2013, published 2017):

Biological target: human CD300a expressed on Hek293T cells (HekCD300a) (human)
Assay: cell-based or functional assay

“goat polyclonal antibody to CD300a (AF2640)” showed an inhibition of DV2 JAM infection of HekCD300a cells (flow cytometry) of 80%.
